From patent US20050222400, “Aptamer constructs” (published 2005)

B1: aptamer 70.28 (ssRNA)
RNA: AGCUCGAGCUCGAAUUCACAAGAACCGGACCGGGUGAGAACCGAGACAAACACCCACCAAGAGGGCCCGGAUCCGUC
B2: aptamer 70.8,13 (ssRNA)
RNA: AGCUCGAGCUCGAAUUCAAAGAGAUCUGGCAGUGUCACAACCAGGAAAAAGACACGACGAACGGGCCCGGAUCCGUC
B3: aptamer 1.1 (ssRNA)
RNA: AGCUCGAGCUCGAAUUCGGGAGAUUCCGUUUUCAGUCCGGGAAAAACUGAAGGGCCCGGAUCCGUC
B4: aptamer 70.28t34 (ssRNA)
RNA: AGCUCGAGCUCGAAUUCGGGAACCGGACGGGUGAGAACCGAGACAAACACCGGGCCCGGAUCCGUC
B5: aptamer 70.15 (ssRNA)
RNA: AGCUCGAGCUCGAAUUCCCUACGAACCCAGGAGAUAAGGGGGAAAACUCUGGAAAACGGGCCCGGAUCCGUC
B6: aptamer 80.55,65 (ssRNA)
RNA: AGCUCGAGCUCGAAUUCAUUUAAUUCCAUAAUGGCUCACCACAAGGGGAACGUUGAUGAAAUAGGGCCCGGAUCCGUC

Legend:
[1] = biological target: T1, HIV-1 reverse transcriptase (RT) (HIV-1, UniProt P04585;P04585 P04585:588-1147,P04585:588-1027); assay: inhibition; RT activity, 80 mM KCl, 6 mM MgCl2, pH 8.0, 37 C
Description: (§1) In vitro RT inhibition. To determine the IC₅₀ values, self-cleaved RNA aptamers were gel purified and eluted in 500 mM NH₄OAc/1 mM EDTA/0.2% SDS. RNA was then treated with phenol/chloroform and ethanol precipitated. RT reactions (50 μl) contained 80 mM KCl, 50 mM Tris-Cl (pH 8.0), 6 mM MgCl₂, 1 mM dithiothreitol (DTT), 0.1 mg/ml BSA, 10 μM […], 25 μM each of the remaining three dNTPs, and a range of concentrations of RNA aptamers (1 nM to 1000 nM). Reactions were incubated at 37° C. for 15 min. Reactions initiated by the addition of 25 ng of purified HIV-1 RT and at the end of the reaction, aliquots were spotted onto DE81 filter paper and washed with 2×SSC (30 mM Sodium Citrate, 300 mM NaCl pH 7.0). Dried filters were then counted and individual IC₅₀s were determined by fitting results to a dose-response curve using nonlinear regression (GraphPad Software Inc., San Diego, Calif.).
(§2) Next, the ability of each of the 10 selected RNA aptamers to inhibit recombinant purified HIV-1 RT was evaluated in vitro and the degree of inhibition (IC₅₀) by each aptamer was determined. In vitro transcription of the primary transcripts with T3 RNA polymerase was followed by gel purification of the processed aptamers. The IC₅₀s calculated ranged from 89 nM to >1000 nM (Table 1). Six RNA aptamers were selected for further studies, to test their effectiveness in inhibiting HIV-1 replication.

[2] = biological target: T1, HIV-1 reverse transcriptase (RT); assay: EMSA; 50 mM KCl, 25 mM NaCl, 5% glycerol, BSA, 25 C
Description: (§3) Radiolabeled, processed RNA aptamers were gel purified and eluted in 500 mM NH₄OAc/1 mM EDTA/0.2% SDS. RNA was then treated with phenouchloroform and ethanol precipitated. Electrophoretic mobility shift assays were performed by incubating 10 fmol purified RNA aptamer with increasing amounts of purified HIV-1 RT at 25° C. in 10 μl of buffer containing 50 mM KCl, 25 mM NaCl, 5% glycerol, 300 μg/ml BSA. The reaction products were electrophoresed on native polyacrylamide gels. Dried gels were exposed to a phosphorimager screen and Kd calculated by using the ImageQuant software. To determine the binding strengths, the percentage of band shift observed with increasing concentrations of RT (1 nM to 500 nM), with respect to the no protein control lane, was first determined. The Kd values were determined by fitting data from three independent experiments to a dose response curve using nonlinear regression (Cann 1996) (GraphPad Software Inc.).
Therefore, the ability of each of the 10 selected RNA aptamers to bind recombinant purified HIV-1 RT was evaluated in vitro via an electrophoretic mobility shift assay (EMSA) and the dissociation constants determined for each individual aptamer in its processed form. In vitro transcription of the primary transcripts, with T3 RNA polymerase was followed by gel purification of the processed aptamers. The aptamer RNAs were incubated with increasing concentrations of purified recombinant HIV-1 RT, the reactions were resolved on a non-denaturing polyacrylamide gel (FIG. 3) and Kd values calculated based on the degree of band shift caused by the formation of RNA-protein complexes (see Methods section).

[3] = biological target: T1, HIV-1 reverse transcriptase (RT); assay: EMSA; 50 mM KCl, 25 mM NaCl, 5% glycerol, BSA, 25 C; processed RNA with flanks; conditions: pseudoknot-like potential stated for some aptamers
Description: as §3
Therefore, the ability of each of the 10 selected RNA aptamers to bind recombinant purified HIV-1 RT was evaluated in vitro via an electrophoretic mobility shift assay (EMSA) and the dissociation constants determined for each individual aptamer in its processed form. In vitro transcription of the primary transcripts, with T3 RNA polymerase was followed by gel purification of the processed aptamers. […]

[4] = biological target: T1, HIV-1 reverse transcriptase (RT); assay: inhibition; RT activity, 80 mM KCl, 50 mM Tris pH 8.0, 6 mM MgCl2, 37 C; conditions: pseudoknot-like potential stated for some aptamers
Description: as §1, §2

| Binder | IC50 [1] | Kd [2] | also measured |
| --- | --- | --- | --- |
| B1 |  |  | IC50 ([1]; pseudoknot): 254 nM; Kd ([2]; pseudoknot): 201 nM |
| B2 |  |  | Kd [3]: 27 nM; IC50 [4]: 89 nM |
| B3 | 607 nM | 270 nM |  |
| B4 | 327 nM | 219 nM |  |
| B5 | 159 nM | 63 nM |  |
| B6 | 143 nM | 129 nM |  |
